Measurements as given in PMC3971405, “Molecular basis for the fold organization and sarcomeric targeting of the muscle atrogin MuRF1” (Open Biology, 2014).

Legend:
[1] = biological target: the molecule itself; test: SEC-MALS; SEC-MALLS, Superdex 75 10/300 GL, 20 mM Tris pH 8.0, 50 mM NaCl; 1 ml injected at 1.5 mg/ml
[2] = biological target: the molecule itself; test: crystal structure; crystals grown at 20°C in 35% MPD, 0.1 M sodium acetate pH 4.5, 20% glycerol, 20 mM NaF; four chains in the asymmetric unit; 2.1 Å
[3] = biological target: the molecule itself; test: SEC-MALS; SEC-MALLS, Superdex 200 10/300, 20 mM Tris pH 8.0, 100 mM NaCl; injected at 0.7 mg/ml

Protein	stoichiometry N [1]	stoichiometry N [2]	stoichiometry N [3]
MuRF1^CC (coiled-coil-prone segment of human MuRF1, residues 214-271) (domain or fragment, MuRF1 (E3 ubiquitin ligase, TRIM family), human, UniProtKB Q969Q1, residues 214-271 (D214 to G271); Cloned into pETM-11 (His6-tag and TEV site N-terminal); also called CC^214-271; MuRF1 CC segment; not shown: His6, N-terminal, cleaved) GAMDTLYAILDEKKSELLQRITQEQEKKLSFIEALIQQYQEQLDKSTKLVETAIQSLDEPG	~2	4	
MuRF1^B2|CC|COS (B2 box, helix H1 and COS-box of MuRF1, residues 114-327, C298S) (domain or fragment) LQKGSHPMCKEHEDEKINIYCLTCEVPTCSMCKVFGIHKACEVAPLQSVFQGQKTELNNCISMLVAGNDRVQTIITQLEDSRRVTKENSHQVKEELSQKFDTLYAILDEKKSELLQRITQEQEKKLSFIEALIQQYQEQLDKSTKLVETAIQSLDEPGGATFLLTAKQLIKSIVEASKGSQLGKTEQGFENMDFFTLDLEHIADALRAIDFGTD			2
